± gives the standard deviation of the averaged measurements.
System: Saccharomyces cerevisiae
Assay: protein stability index of tFT-peptide fusion (C-terminal peptide) (PSI (0-1 scale)); higher = more stable (slower turnover)
Conditions: temperature: 30 C
Protocol: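 MPS profiling in S. cerevisiae of the yeast C-terminome library: the last 12 aa of each annotated ORF are fused to the C-terminus of a sfGFP-mCherry timer, after a GGGS linker. Cells are FACS-sorted into 8 mCherry/sfGFP bins and deep-sequenced. PSI runs from 0 (unstable) to 1 (stable); wild type and das1Δ backgrounds, two technical replicates each.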

[1] = genetic background: das1 deletion

Sequence | protein stability index [1] | protein stability index (genetic background: wild type)
IYQPSRNRLVRY [YBR076C-A C-terminal 12 aa] | 0.707 ± 0.025 | 0.7018 ± 0.0025
KAFVEKLNSKKD [YBT1 C-terminal 12 aa] | 0.707 ± 0.026 | 0.683 ± 0.011
KAIEYFEEYQCW [FRE2 C-terminal 12 aa] | 0.722 ± 0.048 | 0.704 ± 0.052
KAQRSIWGKKSQ [ERV46 C-terminal 12 aa] | 0.6703 ± 0.0035 | 0.682 ± 0.018
KDDTPEDNLEDK [VBA5 C-terminal 12 aa] | 0.6969 ± 0.0021 | 0.71 ± 0.0088
KDNSVGKILNST [BOP3 C-terminal 12 aa] | 0.667 ± 0.018 | 0.71 ± 0.026
KDSELNIKSSKL [STR3 C-terminal 12 aa] | 0.78159 ± 0.00043 | 0.79 ± 0.053
KEDPDLRQSYQG [MGS1 C-terminal 12 aa] | 0.693 ± 0.016 | 0.649 ± 0.0099
KEESGTTSLPTI [GGA1 C-terminal 12 aa] | 0.723 ± 0.02 | 0.704 ± 0.011
KESPANDQASNE [MLP2 C-terminal 12 aa] | 0.688 ± 0.0091 | 0.677 ± 0.032
KETFIQVWEKQE [SAD1 C-terminal 12 aa] | 0.663 ± 0.0072 | 0.651 ± 0.019
KFFNYDGSEGVF [OSI1 C-terminal 12 aa] | 0.7095 ± 0.0039 | 0.715 ± 0.022
KGAFQKVAATSR [RPL24A C-terminal 12 aa] | 0.7102 ± 0.0065 | 0.685 ± 0.0079
KGISIVESTFIS [YDR222W C-terminal 12 aa] | 0.704 ± 0.027 | 0.673 ± 0.022
KGKSFILDSSKL [MDH3 C-terminal 12 aa] | 0.77184 ± 0.00047 | 0.733 ± 0.039
KGLVIVKDAIIL [PFF1 C-terminal 12 aa] | 0.678 ± 0.027 | 0.697 ± 0.01
KGNSMVVHGAQS [SHE3 C-terminal 12 aa] | 0.687 ± 0.026 | 0.6853 ± 0.0059
KIKKIVLKRSFD [NMD2 C-terminal 12 aa] | 0.7019 ± 0.0021 | 0.654 ± 0.022
KISKSELEGVPS [MTC6 C-terminal 12 aa] | 0.722 ± 0.019 | 0.714 ± 0.045
KITEKWTHKDFK [NOP53 C-terminal 12 aa] | 0.688 ± 0.027 | 0.719 ± 0.058
KITVSNLTNQQI [YCL001W-B C-terminal 12 aa] | 0.6746 ± 0.0032 | 0.684 ± 0.04

Sequence | protein stability index [1] | protein stability index (genetic background: wild type)
KIVIPDKFIQHI [HRD1 C-terminal 12 aa] | 0.673 ± 0.025 | 0.706 ± 0.028
KKAPYFLPAPHT [FMO1 C-terminal 12 aa] | 0.7 ± 0.012 | 0.715 ± 0.0093
KKEKISKYVSKS [OPI11 C-terminal 12 aa] | 0.725 ± 0.0098 | 0.683 ± 0.035
KKEPGANCCIIL [RHO2 C-terminal 12 aa] | 0.743 ± 0.02 | 0.72 ± 0.021
KKIVIIYVVRFH [BSC4 C-terminal 12 aa] | 0.304 ± 0.015 | 0.339 ± 0.01
KKKAINEKAEQN [SEC62 C-terminal 12 aa] | 0.679 ± 0.018 | 0.635 ± 0.02
KKKKSLFLFGKI [YOR019W C-terminal 12 aa] | 0.702 ± 0.039 | 0.6688 ± 0.0015
KKKYKFHQGLSI [SOL2 C-terminal 12 aa] | 0.699 ± 0.028 | 0.695 ± 0.02
KKLSNDGETQAN [DMO2 C-terminal 12 aa] | 0.681 ± 0.013 | 0.655 ± 0.011
KKRISEKQHFIE [AMF1 C-terminal 12 aa] | 0.689 ± 0.038 | 0.633 ± 0.016
KKRNWKRREASS [NRG2 C-terminal 12 aa] | 0.698 ± 0.016 | 0.626 ± 0.044
KKRRIHPTPVDL [CAC2 C-terminal 12 aa] | 0.6974 ± 0.0037 | 0.724 ± 0.027
KKVLLQAKQYSK [UBC9 C-terminal 12 aa] | 0.678 ± 0.017 | 0.682 ± 0.031
KLEKKQSERSTH [STE7 C-terminal 12 aa] | 0.7002 ± 0.0013 | 0.769 ± 0.067
KLFESGQDSFDN [MRC1 C-terminal 12 aa] | 0.7192 ± 0.0032 | 0.727 ± 0.022
KLGEAEVQGLIM [YDR340W C-terminal 12 aa] | 0.721 ± 0.0023 | 0.688 ± 0.0056
KLGSYLRDYLRK [GLO3 C-terminal 12 aa] | 0.707 ± 0.0072 | 0.689 ± 0.0095
KMFAKYRENSRI [DYN3 C-terminal 12 aa] | 0.692 ± 0.017 | 0.667 ± 0.0047
KMLWQGITDYYI [YOL163W C-terminal 12 aa] | 0.7357 ± 0.0031 | 0.717 ± 0.021
KMQGKYIKKKAM [YNR001W-A C-terminal 12 aa] | 0.7139 ± 0.0039 | 0.385 ± 0.024
KNDKIHLFMYCT [YBR103C-A C-terminal 12 aa] | 0.54 ± 0.022 | 0.536 ± 0.0038

Sequence | protein stability index [1] | protein stability index (genetic background: wild type)
KNGYGNSNASWW [DBP1 C-terminal 12 aa] | 0.717 ± 0.031 | 0.691 ± 0.027
KNNEVLLHKIKI [FAR8 C-terminal 12 aa] | 0.715 ± 0.015 | 0.669 ± 0.056
KNVMRRGQFMKR [GRC3 C-terminal 12 aa] | 0.681 ± 0.013 | 0.753 ± 0.048
KPSAKPVDLSKL [DAL7 C-terminal 12 aa] | 0.759 ± 0.011 | 0.846 ± 0.069
KPTASSSRKMFR [DUO1 C-terminal 12 aa] | 0.7169 ± 0.0025 | 0.722 ± 0.051
KQKAFIQPKLVF [UTP4 C-terminal 12 aa] | 0.691 ± 0.018 | 0.692 ± 0.017
KQKALRGEFGAF [RNA15 C-terminal 12 aa] | 0.709 ± 0.011 | 0.688 ± 0.01
KQNSSITQKNSS [EPL1 C-terminal 12 aa] | 0.71115 ± 0.00071 | 0.697 ± 0.031
KQVNEDADSDLL [KEL1 C-terminal 12 aa] | 0.6784 ± 0.0013 | 0.682 ± 0.013
KRMALFVQEKLA [YFL031C-A C-terminal 12 aa] | 0.717 ± 0.0081 | 0.18 ± 0.0051
KRPPLPNMSFSW [YLL019W-A C-terminal 12 aa] | 0.776 ± 0.025 | 0.728 ± 0.028
KRTKTKITSNNG [YBR190W C-terminal 12 aa] | 0.711 ± 0.012 | 0.69 ± 0.018
KSEVERVYKENS [FAA3 C-terminal 12 aa] | 0.718 ± 0.0093 | 0.6803 ± 0.0059
KSLAECQELLKN [TPD3 C-terminal 12 aa] | 0.687 ± 0.0072 | 0.663 ± 0.061
KTITIGNLPNSI [UGA2 C-terminal 12 aa] | 0.7224 ± 0.0026 | 0.715 ± 0.026
KTPNTKRRKTHK [HAS1 C-terminal 12 aa] | 0.745 ± 0.024 | 0.75 ± 0.036
KTTPRNVELFGM [DXO1 C-terminal 12 aa] | 0.678 ± 0.021 | 0.693 ± 0.018
KVCVCMTINSYN [YDR154C C-terminal 12 aa] | 0.585 ± 0.027 | 0.583 ± 0.018
KVTKAAQKAAKK [YPR080W; YBR118W C-terminal 12 aa] | 0.678 ± 0.0078 | 0.696 ± 0.012
KWCASYSAGNRR [YLR280C C-terminal 12 aa] | 0.709 ± 0.017 | 0.6752 ± 0.0061
KYESATASALVN [RPS13 C-terminal 12 aa] | 0.697 ± 0.019 | 0.702 ± 0.015

Sequence | protein stability index [1] | protein stability index (genetic background: wild type)
KYFHEDVSEDAY [MET5 C-terminal 12 aa] | 0.707 ± 0.028 | 0.699 ± 0.013
LADEEDAIHDEL [PDI1 C-terminal 12 aa] | 0.68604 ± 0.00055 | 0.678 ± 0.023
LAEVIGVLLKDM [AIM10 C-terminal 12 aa] | 0.69483 ± 0.00037 | 0.646 ± 0.038
LDAILLDIICND [MDM1 C-terminal 12 aa] | 0.697 ± 0.0082 | 0.735 ± 0.045
LEEVEVNDFIQE [SWM2 C-terminal 12 aa] | 0.7099 ± 0.0036 | 0.682 ± 0.02
LEKEKLFNNGNH [PRI2 C-terminal 12 aa] | 0.722 ± 0.053 | 0.722 ± 0.055
LEKLCQKQSSTK [CMC1 C-terminal 12 aa] | 0.724 ± 0.022 | 0.712 ± 0.066
LELCKLASNNLE [RRI2 C-terminal 12 aa] | 0.6896 ± 0.0022 | 0.703 ± 0.04
LELQSRIESYLF [CNN1 C-terminal 12 aa] | 0.703 ± 0.0072 | 0.715 ± 0.047
LERIVGLLLMDM [MHF2 C-terminal 12 aa] | 0.6675 ± 0.0051 | 0.651 ± 0.011
LFFGGEKVHSLK [NGL3 C-terminal 12 aa] | 0.7279 ± 0.0017 | 0.715 ± 0.026
LFYNIRCLGKQF [YAR030C C-terminal 12 aa] | 0.707 ± 0.011 | 0.3967 ± 0.0018
LFYQTIGEFASL [ATF2 C-terminal 12 aa] | 0.706 ± 0.01 | 0.721 ± 0.037
LGKGGKGKRKMK [LSO2 C-terminal 12 aa] | 0.705 ± 0.027 | 0.64 ± 0.018
LGNNAVGLAKAI [PEP4 C-terminal 12 aa] | 0.7 ± 0.0012 | 0.678 ± 0.055
LGQAVVKAINFA [YBR277C C-terminal 12 aa] | 0.6797 ± 0.0059 | 0.702 ± 0.041
LHENQLLKWLSK [RRN5 C-terminal 12 aa] | 0.72567 ± 0.00036 | 0.7 ± 0.008
LIDSYCLGGESR [YPL034W C-terminal 12 aa] | 0.688 ± 0.018 | 0.697 ± 0.039
LIEKNFLSSHAG [YJR071W C-terminal 12 aa] | 0.7159 ± 0.0042 | 0.708 ± 0.022
